The nature of this data set: collision cross section of modified peptide (TIMS, N2, iRT-aligned); higher = larger / more extended gas-phase ion. Put shortly: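 On a timsTOF Pro/HT (dda-PASEF, nitrogen, ~2.4 mbar), synthetic peptide pools were analysed after a 120-min nanoflow C18 separation at 60 °C and identified in MaxQuant. Three reference ions served for 1/K0 calibration, with run-wise alignment to the median iRT peptide deviation. Collision cross section comes from the Mason-Schamp equation, using the most abundant feature per charge state averaged over 1–3 technical replicates.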

The mark [1] stands for this setting: charge state: 2, modification: Glutarylation.
Where [2] appears, read: charge state: 3, modification: Glutarylation.
Where [3] appears, read: charge state: 2, modification: Butyryl.
The mark [4] stands for this setting: charge state: 3, modification: Butyryl.
Setting [5] is: charge state: 2, modification: Acetyl (K).
The mark [6] stands for this setting: charge state: 3, modification: Acetyl (K).
The mark [7] stands for this setting: charge state: 2, modification: Propionyl.

± gives the standard deviation.

“AAQASDLEKIHLDEK [_AAQASDLEK(Gluratylation)IHLDEK_]”: the collision cross section runs as follows: under setting [1], 471.95 ± 1.5 Å²; under setting [2], 503.34 ± 1 Å². Consider “LGVATVAKGVCGACK [_LGVATVAK(Biotin)GVCGACK_]”, for which the collision cross section by setting is: (charge state: 2, modification: Biotin) 431.82 Å²; (charge state: 3, modification: Biotin) 507.7 Å². As for RGGFAVQAK [_R(Methyl (R))GGFAVQAK_], the collision cross section (charge state: 2, modification: Methyl (R)) was 338.01 ± 1.4 Å². The sequence “VFIGNLNTLVVKK [_VFIGNLNTLVVK(Malonyl)K_]” gave a collision cross section (charge state: 2, modification: Malonyl) of 419.59 ± 0.57 Å². As to “VQGGALEDSQLVAGVAFKK [_VQGGALEDSQLVAGVAFK(Gluratylation)K_]”, the collision cross section by setting is: under setting [1], 484.97 ± 2 Å²; under setting [2], 564.26 Å². Regarding “STGLELETPSLVPVKK [_STGLELETPSLVPVK(Butyryl)K_]”, the collision cross section by setting is: under setting [3], 438.73 ± 0.53 Å²; under setting [4], 522.48 ± 2.1 Å². “SYSVGASGSSSR [_SY(Phospho (Y))SVGASGSSSR_]” displayed a collision cross section (charge state: 2, modification: Phospho (Y)) of 356.68 ± 0.65 Å². For “LLEQKTQESQK [_LLEQK(Trimethyl (K))TQESQK_]”, the collision cross section reads like this: (charge state: 2, modification: Trimethyl (K)) 409.98 ± 2.2 Å²; (charge state: 3, modification: Trimethyl (K)) 452.07 ± 1.5 Å². As for “DYQPGITFIVVQK [_DYQP(Hydroxyproline)GITFIVVQK_]”, the collision cross section is on record as 402.94 ± 0.79 Å² (charge state: 2, modification: Hydroxyproline) and 487.91 Å² (charge state: 3, modification: Hydroxyproline). “ALASIDSKLNQAK [_ALASIDSK(Acetyl (K))LNQAK_]” had a collision cross section under setting [5] of 399.37 ± 2 Å².

Turning to “DYSAPVNFISAGLKK [_DYSAPVNFISAGLK(Acetyl (K))K_]”, the collision cross section is, setting by setting: under setting [5], 433.43 ± 2.4 Å²; under setting [6], 518.95 ± 1.1 Å². As for “STGLELETPSLVPVKK [_STGLELETPSLVPVK(Gluratylation)K_]”, the collision cross section was found to be 457.67 ± 1.1 Å² under setting [1] and 527.31 ± 1.8 Å² under setting [2]. IQTKAGEATVK [_IQTK(Propionyl)AGEATVK_]: the collision cross section under setting [7] was 369.17 ± 0.33 Å². In the case of “GRGGAESHTFK [_GR(Citrullination (R))GGAESHTFK_]”, the collision cross section reads like this: (charge state: 2, modification: Citrullination (R)) 374.44 ± 0.39 Å²; (charge state: 3, modification: Citrullination (R)) 436.66 ± 2.2 Å².

“GTISAPGKVVTAAAQAK [_GTISAPGK(Acetyl (K))VVTAAAQAK_]”: the collision cross section runs as follows: under setting [5], 440.91 ± 2.6 Å²; under setting [6], 515.28 ± 2 Å². Take TLQKQSVVYGGK [_TLQK(Succinyl)QSVVYGGK_]: the collision cross section (charge state: 2, modification: Succinyl) is reported as 397.13 ± 0.77 Å². As for “GTITVSAQELKDNR [_GTITVSAQELK(Acetyl (K))DNR_]”, the collision cross section runs as follows: under setting [5], 415.96 ± 1.9 Å²; under setting [6], 479.46 ± 0.78 Å². On to “DDSFLGKLGGTLAR [_DDSFLGK(Methyl (K))LGGTLAR_]”, for which the collision cross section by setting is: (charge state: 2, modification: Methyl (K)) 408.16 ± 0.81 Å²; (charge state: 3, modification: Methyl (K)) 476.22 ± 3.5 Å². Regarding “ASDTSSETVFGKR [_ASDTSSETVFGK(hydroxyisobutyryl)R_]”, the collision cross section is, setting by setting: (charge state: 2, modification: hydroxyisobutyryl) 403.06 ± 1.1 Å²; (charge state: 3, modification: hydroxyisobutyryl) 485.06 ± 0.47 Å².

Consider “VGTASVLQPVKK [_VGTASVLQPVK(Propionyl)K_]”, for which, under setting [7], the collision cross section is recorded as 382.42 ± 0.33 Å². On to “SGNLTEDDKHNNAK [_SGNLTEDDK(Butyryl)HNNAK_]”, for which the collision cross section reads like this: under setting [3], 425.09 ± 0.55 Å²; under setting [4], 472.83 ± 2.7 Å². The sequence “TVSKVDDFLANEAK [_TVSK(Acetyl (K))VDDFLANEAK_]” came in with a collision cross section under setting [5] of 417.71 ± 1.3 Å². Regarding “VSPASSVDSNIPSSQGYKK [_VSPASSVDSNIPSSQGYK(Formyl)K_]”, the collision cross section is, setting by setting: (charge state: 2, modification: Formyl) 457.96 ± 0.14 Å²; (charge state: 3, modification: Formyl) 550.3 ± 3 Å². Take “DASTLQSQKAEGTGDAK [_DASTLQSQK(GlyGly (K))AEGTGDAK_]”: the collision cross section reads like this: (charge state: 2, modification: GlyGly (K)) 451.81 ± 1.4 Å²; (charge state: 3, modification: GlyGly (K)) 505.67 ± 1.1 Å².

The values above are taken from the supplement of paper PMC10598134.
